How the values were obtained:
Test in all cases: cryo-EM structure
[1] = target: LHC-II complex (spinach (endogenous in leaves))
[2] = target: Rubisco (spinach (endogenous in leaves))
[3] = target: chloroplast carbonic anhydrase (CA) (spinach (endogenous in leaves))
[4] = target: tonoplast intrinsic protein TIP1;1 (spinach (endogenous in leaves))
[5] = target: tonoplast intrinsic protein TIP2;1 (spinach (endogenous in leaves))

For LHC-II complex (natural protein), the stoichiometry N [1] was 3.

Rubisco (complex) was tested, and the stoichiometry N [2] was 8.

Substance “chloroplast carbonic anhydrase (CA) (enzyme)” has a stoichiometry N [3] of 8.

Work on “tonoplast intrinsic protein TIP1;1 (natural protein)” yielded a stoichiometry N [4] of 4 and a stoichiometry N [5] of 3.
